Measured values as given in patent publication EP3494999A1, “PSMA LIGANDS FOR IMAGING AND ENDORADIOTHERAPY” (Technische Universität München, priority 2017, dated 2019).
Square brackets hold non-standard residues; d marks the D form. Peptide text beside a SMILES is read from it. * marks the point of attachment. X1 = O=C(O)CC[C@H](NC(=O)N[C@@H](CCCCNC(=O)CCCCCCC(=O)*)C(=O)O)C(=O)O; DOTAGA = O=C(O)CN1CCN(CC(=O)O)CCN(C(CCC(=O)*)C(=O)O)CCN(CC(=O)O)CC1; dPhe(4-NH2) = Nc1ccc(C[C@@H](N)C(=O)O)cc1; dTyr(3-I) = N[C@H](Cc1ccc(O)c(I)c1)C(=O)O; Phe(4-NH2) = Nc1ccc(C[C@H](N)C(=O)O)cc1; d2Nal = N[C@H](Cc1ccc2ccccc2c1)C(=O)O

Legend:
[1] = biological target: T1, human serum albumin (HSA) (Homo sapiens, UniProt P02768); format: in vitro ADME
T1 construct: purchased Daicel Chemical Industries, purchased from Chiral Technologies Europe (France)
T1 sequence (P02768 25-609): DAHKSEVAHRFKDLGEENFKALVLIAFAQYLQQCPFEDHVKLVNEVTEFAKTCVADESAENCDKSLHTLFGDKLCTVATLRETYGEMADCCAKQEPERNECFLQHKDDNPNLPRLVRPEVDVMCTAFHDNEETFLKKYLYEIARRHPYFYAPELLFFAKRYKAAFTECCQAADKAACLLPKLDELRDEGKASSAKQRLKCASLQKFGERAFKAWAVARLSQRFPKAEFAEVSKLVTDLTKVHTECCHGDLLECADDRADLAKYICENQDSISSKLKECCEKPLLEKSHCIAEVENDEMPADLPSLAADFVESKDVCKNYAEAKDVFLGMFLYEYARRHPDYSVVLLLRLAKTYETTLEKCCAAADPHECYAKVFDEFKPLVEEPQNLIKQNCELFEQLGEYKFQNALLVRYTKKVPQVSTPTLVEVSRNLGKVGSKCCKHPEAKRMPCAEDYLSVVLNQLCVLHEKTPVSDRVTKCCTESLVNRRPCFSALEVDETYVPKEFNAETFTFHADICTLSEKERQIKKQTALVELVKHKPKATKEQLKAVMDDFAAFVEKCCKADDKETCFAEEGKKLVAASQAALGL
Text: The Fmoc-(9-fluorenylmethoxycarbonyl-) and all other protected amino acid analogs were purchased from Bachem (Bubendorf, Switzerland) or Iris Biotech (Marktredwitz, Germany). […] The tritylchloride polystyrene (TCP) resin was obtained from PepChem (Tubingen, Germany). Chematech (Dijon, France) delivered the chelator DOTAGA-anhydride. All necessary solvents and other organic reagents were purchased from either Alfa Aesar (Karlsruhe, Germany), Sigma-Aldrich (Munich, Germany) or VWR (Darmstadt, Germany). Solid phase synthesis of the peptides was carried out by manual operation using an Intelli-Mixer syringe shaker (Neolab, Heidelberg, Germany). […] Analysis of the peptides was performed by applying different gradients of 0.1% (v/v) trifluoroacetic acid (TFA) in H2O (solvent A) and 0.1% TFA (v/v) in acetonitrile (MeCN) (solvent B) with a constant flow of 1 mL/min (specific gradients are cited in the text). […] Human serum albumin (HSA) binding was determined using a Chiralpak HSA 50 x 3 mm 5µm Analytical Column connected to a Chiralpak HSA 10 x 3 mm 5µm Guard Cartridge (Daicel Chemical Industries) purchased from Chiral Technologies Europe (France). Nonlinear regression for the HSA binding was performed using OriginPro 2016G. Both retention times tR as well as the capacity factors K' are cited in the text. […] Radioactivity was detected through connection of the outlet of the UV-photometer to a Nal(TI) well-type scintillation counter from EG&G Ortec (Munich, Germany). […] ESI-mass spectra were acquired on an expression^L CMS mass spectrometer (Advion Ltd., Harlow, UK) and on a Varian 500-MS IT mass spectrometer (Agilent Technologies, Santa Clara, USA). For the HSA binding experiment a Chiralpak HSA 50 x 3 mm 5µm Analytical Column, (Daicel Chemical Industries, LTD) connected to a Chiralpak HSA 10 x 3 mm 5µm Guard Cartridge (Daicel Chemical Industries; Chiral Technologies Europe) was used.
The mobile phase was freshly prepared for each experiment and only used for one day. The column was kept at room temperature and each run was stopped after detection of the signal to reduce the acquisition time. All substances were dissolved in a 0.5mg/ml concentration in 50% 2-Propanol and 50% 50mM pH 6.9 ammonium acetate buffer. […] All nine reference substances were injected consecutively to establish a non-linear regression with OriginPro 2016G. […] Table 1: Reference substances used for the calibration of the HSA-column.

[2] = format: physicochemical
Procedure: To a volume of 500 µL n-octanol, 0.5 to 1.0 MBq of the radiolabeled PSMA inhibitor in 500 µL PBS (pH = 7.4) was added and rigorously vortexted for 3 min (n = 6). For quantitative phase separation, the mixture was centrifuged at 6,000 g for 5 min (Biofuge 15, Heraus Sepatech, Osterode, Germany).

PSMA = PSMA (Homo sapiens, UniProt Q04609); assay: Internalization of radiolabeled PSMA inhibitors into cells (PMPA blockade); format: cell-based; design: endogenous in cells; LNCaP is named only for the xenografts; conditions: 177Lu-labeled inhibitors, 37°C; reference basis of the % not stated
PSMA, sequence (Q04609 whole entry): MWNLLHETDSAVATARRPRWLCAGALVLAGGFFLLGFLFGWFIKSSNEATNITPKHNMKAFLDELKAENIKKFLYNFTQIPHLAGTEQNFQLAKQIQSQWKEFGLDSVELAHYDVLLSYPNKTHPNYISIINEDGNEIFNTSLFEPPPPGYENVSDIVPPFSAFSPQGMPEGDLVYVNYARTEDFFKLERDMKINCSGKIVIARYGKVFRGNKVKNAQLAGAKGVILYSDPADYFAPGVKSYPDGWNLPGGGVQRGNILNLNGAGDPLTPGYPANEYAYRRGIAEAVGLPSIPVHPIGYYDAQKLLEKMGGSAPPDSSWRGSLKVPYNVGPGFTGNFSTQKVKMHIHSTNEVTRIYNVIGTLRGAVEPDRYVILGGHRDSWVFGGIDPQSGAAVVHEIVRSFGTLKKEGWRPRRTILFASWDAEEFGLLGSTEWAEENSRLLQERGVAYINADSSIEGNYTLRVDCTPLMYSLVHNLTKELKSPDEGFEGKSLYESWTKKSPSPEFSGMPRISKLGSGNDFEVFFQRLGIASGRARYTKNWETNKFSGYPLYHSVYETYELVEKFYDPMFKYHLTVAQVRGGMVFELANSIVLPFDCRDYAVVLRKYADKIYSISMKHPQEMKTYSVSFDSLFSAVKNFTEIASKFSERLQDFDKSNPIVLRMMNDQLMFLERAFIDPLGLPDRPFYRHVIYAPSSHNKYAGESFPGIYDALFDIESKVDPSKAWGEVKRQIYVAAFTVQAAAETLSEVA
Procedure: The ^177Lu-labeled compounds, for in vitro studies, were prepared as previously described (Sosabowski, J.K. and S.J. Mather, Conjugation of DOTA-like chelating agents to peptides and radiolabeling with trivalent metallic isotopes. Nat. Protocols, 2006. 1(2): p. 972-976) with minor modifications and used without further purification. In short, to a reaction volume of 10 µL 1.0 M NH4OAc buffer pH = 5.9 was added 0.75 to 1.0 nmol tracer (7.5 to 10 µL), 10 to 40 MBq ^177LuCl3 (Specific Activity (AS) > 3000 GBq/mg, 740 MBq/mL, 0.04 M HCl, ITG, Garching, Germany) and finally filled up to 100 µL with trace-pure Water (Merck, Darmstadt, Germany). The reaction mixture was heated for 30 min at 95°C and the radiochemical purity was determined using Radio-TLC.
[…] Each well was treated with either 25 µL of either DMEM-F12 (5% BSA) or a 100 µM PMPA solution for blockade. Next, 25 µL of the respective ^68Ga-and ^177Lu-labeled PSMA inhibitors (2.0 nM / 5.0 nM) was added and the cells incubated at 37°C for 5, 15, 30 and 60 min, respectively. The experiment was terminated by placing the 24-well plate on ice for 3 min and consecutive removal of the medium. Each well was rinsed with 250 µL HBSS and the fractions from these first two steps combined, representing the amount of free radioligand. Removal of surface bound activity was accomplished by incubation of the cells with 250 µL of ice-cold PMPA (10 µM in PBS) solution for 5 min and rinsed again with another 250 µL of ice-cold PBS. The internalized activity was determined by incubation of the cells in 250 µL 1.0 M NaOH and the combination with the fraction of a subsequent wash step with 250 µL 1.0 M NaOH. Each experiment (control and blockade) was performed in triplicate for each time point. Free, surface bound and internalized activity was quantified in a γ-counter.

SMILES	HSA [%] [1] [%]	logP [2]	Internalization [%] (PSMA)
O=C(O)CC[C@H](NC(=O)N[C@@H](CCCCNC(=O)CCCCCCC(=O)NCCCC[C@@H](NC(=O)[C@@H](Cc1ccc2ccccc2c1)NC(=O)[C@@H](Cc1ccc(O)cc1)NC(=O)CCC(C(=O)O)N1CCN(CC(=O)O)CCN(CC(=O)O)CCN(CC(=O)O)CC1)C(=O)O)C(=O)O)C(=O)O (stereo partly shown) [[^nat/177Lu]PSMA-4, DOTAGA-y-nal-k-KuE, metal not drawn, reference compound]	82.6	-4.11 ± 0.06	71.7 ± 0.7
Nc1ccc(C[C@H](NC(=O)CCC(C(=O)O)N2CCN(CC(=O)O)CCN(CC(=O)O)CCN(CC(=O)O)CC2)C(=O)N[C@H](Cc2ccc(O)c(I)c2)C(=O)N[C@H](Cc2ccccc2)C(=O)N[C@H](CCCCNC(=O)CCCCCCC(=O)NCCCC[C@H](NC(=O)N[C@@H](CCC(=O)O)C(=O)O)C(=O)O)C(=O)O)cc1 (stereo partly drawn) [[^nat/177Lu]PSMA-3, DOTAGA-(4-NH2)F-(l-y)-f-k-KuE, metal not drawn] ({DOTAGA}-[Phe(4-NH2)][dTyr(3-I)][dF][dK](X1)-OH)	91.9		166.92 ± 2.4
Nc1ccc(C[C@H](NC(=O)CCC(C(=O)O)N2CCN(CC(=O)O)CCN(CC(=O)O)CCN(CC(=O)O)CC2)C(=O)N[C@H](Cc2ccc(O)cc2)C(=O)N[C@H](Cc2ccc3ccccc3c2)C(=O)N[C@H](CCCCNC(=O)CCCCCCC(=O)NCCCC[C@H](NC(=O)N[C@@H](CCC(=O)O)C(=O)O)C(=O)O)C(=O)O)cc1 (stereo partly shown) [[^nat/177Lu]PSMA-6, DOTAGA-(4-NH2)F-y-nal-k-KuE, metal not drawn] ({DOTAGA}-[Phe(4-NH2)][dY][d2Nal][dK](X1)-OH)	83.17		108.8 ± 2.5
Nc1ccc(C[C@@H](NC(=O)CCC(C(=O)O)N2CCN(CC(=O)O)CCN(CC(=O)O)CCN(CC(=O)O)CC2)C(=O)N[C@H](Cc2ccc(O)c(I)c2)C(=O)N[C@H](Cc2ccccc2)C(=O)N[C@H](CCCCNC(=O)CCCCCCC(=O)NCCCC[C@H](NC(=O)N[C@@H](CCC(=O)O)C(=O)O)C(=O)O)C(=O)O)cc1 (stereo partly drawn) [[^nat/177Lu]PSMA-2, DOTAGA-(4-NH2)f-(l-y)-f-k-KuE, metal not drawn] ({DOTAGA}-[dPhe(4-NH2)][dTyr(3-I)][dF][dK](X1)-OH)	82.5	-4.11 ± 0.06	122.15 ± 1.3
O=C(O)CC[C@H](NC(=O)N[C@@H](CCCCNC(=O)[C@@H](Cc1ccc(I)cc1)NC(=O)CCCC(=O)NCCCC[C@@H](NC(=O)[C@@H](Cc1ccc2ccccc2c1)NC(=O)[C@@H](Cc1ccc(O)cc1)NC(=O)CCC(C(=O)O)N1CCN(CC(=O)O)CCN(CC(=O)O)CCN(CC(=O)O)CC1)C(=O)O)C(=O)O)C(=O)O (stereo partly drawn) [[^nat/177Lu]PSMA-10, DOTAGA-y-nal-k(Glut-(l-f)-KuE), metal not drawn, reference compound]	96.61	-3.05 ± 0.02	118.6 ± 0.5
